# Test system: THP-1 cells
# Experiment: Cytotoxicity assay (CCK-8)
# Assay type: cell-based
# Details: CCK-8, 0–50 μM, 12 h, 37 °C
# Description: Cytotoxicity assay (CCK-8)
# The cytotoxicity of FPy1 and YPy1 to THP-1 was evaluated by cell counting kit-8 (CCK-8). Briefly, the THP-1 cells were seeded in 96-well plates (5000 cells/well) and cultured at 37 °C for 24 hours. Various concentrations of FPy1 or YPy1 (0, 2.5, 5, 10, 20, 30, 40, 50 μM) in RPMI 1640 medium were added, and the cells were kept incubation for 12 hours. Then, the cells were washed with PBS and incubated in the 100 μL fresh medium with 10 μL CCK8 dye for an additional 2 hours. The absorbance was measured at 450 nm using a Tecan Infinite M1000 Multi-function microplate reader, and cell viability was calculated using the formula:
# Cell viability (%) = [(OD test-ODblank)/(ODcontrol-ODblank)] ×100%
# Intracellular imaging with FPy1 in THP-1 cells
# THP-1 cells were seeded in dishes and cultured overnight. […] The fluorescence imaging was performed under the excitation at 514 nm with signal collection in the range […]
# for 4 hours, the cells were further treated with Nig (10 μM) for 2 hours. […] The distribution of FPy1 was analyzed by collecting organelle-specific dye fluorescence at 495-525 nm with 488 nm excitation, while simultaneously detecting FPy1 fluorescence at 530-610 nm with 514 nm excitation. […]
# Nucleus pulposus cells were isolated from discs and resuspended in 1mL DMEM/F12 medium containing 10 μM ITS-A. A total of […] were counted and transferred into centrifuge tubes. […]
substance,measurement,value
"–FLTDG– [FPy1, RhoB donor, hNR quencher]",cytotoxicity towards THP-1 cells,low cytotoxicity
"–YVADG– [YPy1, caspase-1-responsive FRET probe with recognition peptide –YVADG–; RhoB donor, hNR quencher]",cytotoxicity towards THP-1 cells,low cytotoxicity

# From publication PMC12598616, “Design and optimization of caspase-1-responsive fluorescent probes for pyroptosis imaging and anti-pyroptosis drug screening” (Chemical Science, 2025)
